The text below walks through data of US20190185570A1 (IGM BIOSCIENCES, published 2019).

For assay [1], the target named is Fc fusion protein of Human CTLA4 (human) (UniProt P16410). Nature of the assay: BLI (Fortebio), human CTLA4 Fc fusion immobilized by amine reactive chemistry. A general note: Biolayer interferometry detects binding as a change in optical thickness at a sensor tip.
The next assay deals with DR5 (UniProt O14763 56-440, limits assumed). Nature of the assay: cell-based or functional assay.

Chain of Fc fusion protein of Human CTLA4 (human) (P16410 36-161 limits assumed): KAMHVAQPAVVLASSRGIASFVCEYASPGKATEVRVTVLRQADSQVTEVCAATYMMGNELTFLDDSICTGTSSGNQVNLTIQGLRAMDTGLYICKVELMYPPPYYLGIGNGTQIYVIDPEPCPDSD

Take “Anti CTLA4 IgG (BioLegend A3.B10.G1) (antibody)”: in assay [1], the Kd – broadly, a measure of binding affinity in units of concentration – is 2 nM.

B1: anti-DR5 IgM (antibody, V domains shown)
VH: EVQLVQSGGGVERPGGSLRLSCAASGFTFDDYGMSWVRQAPGKGLEWVSGINWNGGSTGYADSVKGRVTISRDNAKNSLYLQMNSLRAEDTAVYYCAKILGAGRGWYFDLWGKGTTVTVSS
VL: SSELTQDPAVSVALGQTVRITCQGDSLRSYYASWYQQKPGQAPVLVIYGKNNRPSGIPDRFSGSSSGNTASLTITGAQAEDEADYYCNSRDSSGNHVVFGGGTKLTVLG
On to B1, for which, in the assay with DR5, the “cytotoxic effect, cell viability of COLO205 cells (Cell-Titer Glo), fold against the corresponding IgG” value is over 1000 fold.
